Experimental data as given in PMC4041433.
Read-outs that look alike come from different tables or passages of the source. Blank lines part the entries; values can stand above or below the molecule they belong to.

What was measured:
[1] = target: Pyrococcus furiosus ThermoDBP-related protein 1 (pfuThermoDBP-RP1) (Pyrococcus furiosus); assay: crystal structure
[2] = target: Pyrococcus furiosus ThermoDBP-related protein 1 (pfuThermoDBP-RP1) (Pyrococcus furiosus); assay: SEC
[3] = target: Aeropyrum pernix ThermoDBP-related protein 2 (apeThermoDBP-RP2) (Aeropyrum pernix); assay: crystal structure
[4] = target: Aeropyrum pernix ThermoDBP-related protein 2 (apeThermoDBP-RP2) (Aeropyrum pernix); assay: SEC
[5] = target: Aeropyrum pernix ThermoDBP-related protein 2 (apeThermoDBP-RP2) (Aeropyrum pernix); assay: crystal structure; remark: listed apart in the source
apeThermoDBP-RP2 [6] = target: T1, apeThermoDBP-RP2 (Aeropyrum pernix, UniProt Q9YAS7 1-234); assay: EMSA
T1 sequence: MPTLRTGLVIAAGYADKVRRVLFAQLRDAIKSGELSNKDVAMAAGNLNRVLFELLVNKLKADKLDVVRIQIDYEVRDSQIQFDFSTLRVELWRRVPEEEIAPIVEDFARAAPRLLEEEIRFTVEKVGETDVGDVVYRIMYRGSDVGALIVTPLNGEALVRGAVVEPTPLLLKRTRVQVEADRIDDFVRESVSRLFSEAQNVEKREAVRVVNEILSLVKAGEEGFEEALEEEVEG

apeThermoDBP-RP2 [7] = target: T1, apeThermoDBP-RP2; assay: EMSA; remark: listed apart in the source
apeThermoDBP-RP2 [8] = target: T1, apeThermoDBP-RP2; assay: EMSA; remark: listed apart in the source
apeThermoDBP-RP2 [9] = target: T1, apeThermoDBP-RP2; assay: EMSA; remark: listed apart in the source

stoichiometry N [1]: 4
stoichiometry N [2]: 4
Molecule: Pyrococcus furiosus ThermoDBP-related protein 1 (pfuThermoDBP-RP1) (natural protein)

stoichiometry N [3]: 4
stoichiometry N [4]: 4
stoichiometry N [5]: 4
Molecule: Aeropyrum pernix ThermoDBP-related protein 2 (apeThermoDBP-RP2) (natural protein)

B1: dT15 (ssDNA)
DNA: TTTTTTTTTTTTTTT
binding result (apeThermoDBP-RP2 [6]): binds

B2: dT25 (ssDNA)
DNA: TTTTTTTTTTTTTTTTTTTTTTTTT
binding result (apeThermoDBP-RP2 [6]): binds

B3: dT35 (ssDNA)
DNA: TTTTTTTTTTTTTTTTTTTTTTTTTTTTTTTTTTT
binding result (apeThermoDBP-RP2 [7]): binds

B4: 45-mer ssDNA (ssDNA)
DNA: CTTGCTAGGACGGATCCCTCGAGGTTTTTTTTTTTTTTTTTTTT
binding result (apeThermoDBP-RP2 [8]): binds

B5: dT30 (ssDNA)
DNA: TTTTTTTTTTTTTTTTTTTTTTTTTTTTTT
binding result (apeThermoDBP-RP2 [9]): binds

B6: dT20 (ssDNA)
DNA: TTTTTTTTTTTTTTTTTTTT
binding result (apeThermoDBP-RP2 [6]): binds
